Experiment: soluble on expression in E. coli; label from the status in PepcDB or PDB records

Sequence | soluble on expression in E. coli
MGSDKIHHHHHHMHFYTARQPILNRRQRVVAYELLFRDSYKNCFPVDVPDKVATAKLLVNSFLSMDIEDMTDGKPALINFPTSLLKEHLVHILPYKNLVIEVLETVEPNDDNFAILKQLFDSGYHLALDDFIYSPAWDRFLPLFKLIKIDIVATPLDTIAHILPKLKQKKTRLLAEKVETQADFLHAKALGFDYFQGYFFYKPEIVKGNEVELSQPFLMSIYTEVMKPSFSYRKLEAYFTQDMDLSYKLLRFVNSSYFSHVKDIISLKQAMIFLGENQLRKFVCLIVMAQLNPDKPQILIQNTMLRARLCEVIAKVMKLNKLADAAFLTGLFSTLDAILDKPMEKVLHSLPLAPEINNALLHQQGELAECLALAIAYMQGNWEFVSEFVSRNHINAGELTRRCNQVYLWLSEYQRSSSSKA | not soluble
MNYFPDEVIEHVFDFVTSHKDRNAISLVCKSWYKIERYSRQKVFIGNCYAINPERLLRRFPCLKSLTLKGKPHFADFNLVPHEWGGFVLPWIEALARSRVGLEELRLKRMVVTDESLELLSRSFVNFKSLVLVSCEGFTTDGLASIAANCRHLRDLDLQENEIDDHRGQWLSCFPDTCTTLVTLNFACLEGETNLVALERLVARSPNLKSLKLNRAVPLDALARLMACAPQIVDLGVGSYENDPDSESYLKLMAVIKKCTSLRSLSGFLEAAPHCLSAFHPICHNLTSLNLSYAAEIHGSHLIKLIQHCKKLQRLWILDSIGDKGLEVVASTCKELQELRVFPSDLLGGGNTAVTEEGLVAISAGCPKLHSILYFCQQMTNAALVTVAKNCPNFIRFRLCILEPNKPDHVTSQPLDEGFGAIVKACKSLRRLSLSGLLTDQVFLYIGMYANQLEMLSIAFAGDTDKGMLYVLNGCKKMKKLEIRDSPFGDTALLADVSKYETMRSLWMSSCEVTLSGCKRLAEKAPWLNVEIINENDNNRMEENGHEGRQKVDKLYLYRTVVGTRMDAPPFVWIL | not soluble
MGSDKIHHHHHHKESGSLLNLLTDAEIERTEKIVISGNGLEEKDFAVLKAMLIRHALREVDIENTSTRAITERAFEGCSNLSAIKLPKYLVNTGWYAFEDCSGLMDIELPVSVETIANSFRGCSSLTSITLGRRVKSLDSQSFYLCSNLREVHCKGSIPPSCKQDSFKGLYETCTLYVPEGCKRDYTFADGWLNFGNIREEYVEPALSLRVNLEGGTFAWQLYPLYDGNGGIIVNHFYPGQDYLIDVEKGETIVFHIAEENTYFSNWKIDTILLNGEDITSQVTENDLLYLNIDRDSKLEIVMKDLSVTSNDVIENPQDIKISTLDNKVLIQNITTGERVNVYNVLGVLVHSVVVEAMDYEVQLPKGEIYLIQIGKKTVKLKL | not soluble
MSLKQISIRDVAALAGVSVGSASRVINGAANVTPDVRERVDRAIAALRYRPNHAAQSLRSRTSKTIGCMFSDVANPLYARAFRALEEHFRREGYMLLLANGLNDAEREIDIIQTFQLRGMDGVILAPGNERHPGVLDAVRRLSMPAVIYDRDLAVDADAVLFDHVAGVKAAIHHLVELGHTRIALALWQVKSRPVRRRIEGYKAAFKAAGLPVPDLILQEPTPTSSAFDDVTRLLQLPDPPTAFLAQGTHTLTSTLRAIAKQGLRVPEDVSVIGIGDTDFAQTYDPPLTVLRTPTDEVAAHAVEMLLSRLAAKGDASLSPRKALIQFDLILRESCAPVAREGHHHHHH | not soluble
MGSDKIHHHHHHMSPRLGDSAEMFVPQEQSGLNEAAPAAPRRPYRLSRRPEERVHVLGGTMDLVRPEEVFHFVTGKLEARQNAIVANHNLHSLYLIGKDHQIGQFYKAADLIEVDSVPLIFWARLVGRASRRFHRCTYLDWRDAFWALASEKNWKVFFVGGAPGVGEKAVERIRQDWPNARIETHHGYFDATQGSAENTAVVAKIRDYAPDIVLVGMGMPRQEIWTLENHQAYGPAATFTVGGAFDYEAGVQKAAPRWMGPLGMEWLFRLMSDPQRLFFRYCIEPWSLIGPACGDVVRALSRRSTTGESRAAENARWEQIRARNEAAR | not soluble
MSLAAHWEIAVKNSSRSAVDPFIVMDVMEAARRAEEAGRRIIHMEVGQPGTGAPRGAVEALAKSLETDALGYTVALGLPALRQRIARLYGEWYGVDLDPGRVVITPGSSGGFLLAFTALFDSGDRVGIGAPGYPSYRQILRALGLVPVDLPTAPENRLQPVPADFAGLDLAGLMVASPANPTGTMLDHAAMGALIEAAQAQGASFISDEIYHGIEYEAKAVTALELTDECYVINSFSKYFSMTGWRVGWMVVPEDQVRVVERIAQNMFICAPHASQVAALAALDCDAELQANLDVYKANRKLMLERLPKAGFTRIAPPDGAFYVYADVSDLTDDSRAFAAEILEKAGVAVTPGLDFDPERGAGTLRFSYARATADIEEGLDRLEAFMQARGEGHHHHHH | soluble
MGSDKIHHHHHHVASQTPGTEAQSQTVQPGRIAAISLHTSPLDQPGTGDAGGMNVYIVEVAKRLAERGIAVDIFTRATSFEQPPEVELAPGVTVRNIAAGPYGTLDKTALINYLCPFVHGMLRAEAEHLGGSYDLVHTHYWLSGQAGWPVAREWGVPLVHSMHTMARVKNMSLAEGDTPEPEERVRGEDALVALADRLIANTDDEAAQLINYYGASPSRVSTVFPGVDLTTFTPGSRAESLRRLGLPEDTILLLFVGRVQRLKAPDVLLRAAARLLELNPSLRDRLVVAVVGGQSGTGYREPWLLSDLADSLGIADLVRLEPPCPRAELVHYYRAATVTVVPSHSESFGLVAVESQACGTPVVAARVGGLPTAVRDGVSGVLIDGHDPHDYANVLHRMITEPRWRERMGAAGIHHASGLSWESTVDGLLAAYRDALHQCRLTVPCR | not soluble
MGCGLRKLEDPDESSPGKIFSTLKRPQVETKTEFAYEYALLDFTLQASTNPDVIKINSVLDIVAKVEDYYLKGYVVGAIHPVIQPVGQRKHLPASHLYRAVLSRLKLSPKHSAAGGQRRARLVMEECPLTCEAQANDAAKELMDKINAAAKRGMKFVGLVSQCYLPSMHCNGASHDGVAESGLHVRQDSQDNCKGWNEGALGGHLSESGVEEEPQHESGQHQTERNSSPSYANPKRGEAPDGKLYMVFNAFEEDAASWAYQEGVLSMKVTRKGAVISALDANWLELTTFYYKQGFSLIDSFVCWETPKVAKLEAFQLSVSDKLPKGKQKYSFQSLSGIPASGLA | soluble
MSDGKIIHDPVHGSMKIPEELIKLVDTPEIQRLRYIRQLGLANLVYPGANHSRFEHSLGVWYLAKKLSSELDIPRDEALLVQISALLHDIGHGPFSHTFERVYKERLKIGDHMEISRKIIEGKIDIVENGGEIPDIISDLGYSPKEVGELICGVHKKKYLSMIINGDIDVDQLDYLARDAHYTGVAHGIIDLERLLNVMKIHDNELVVDEKGLEAVEGMLVARSLMYSRVYFHRTVKIAEAMLIKGVEFALDSGELFDFWKMTDDRLIVELEDIGGFPSEIIQKIRRRELYKPAVIVGPQDLTGDERRIIASLYKNTKKIRELENELADRVGASEGEVIIELSVPELIISEPRLKQIEISILLGDGKKEPLTKVTPLASAIKRRQTPRWILIIATPPNYVEKVKSVWRKVIF | not soluble
MGSDKIHHHHHHMSKITFKDIYIDGNKITEDSRKAIYLLPPQPLKYASNTWIYKTMPTMNQWLKDIEVQKKMHLNQSSYHLSFSFPANEKIDEVLLEKIRELGFQIGVLELYVIEAKALKELSRKRDVDIQLVSSNNINDYLHVYDAFARPFGDSYANMVKQHIYSSYNLDDIERLVAYVNHQPVGIVDIIMTDKTIEIDGFGVLEEFQHQGIGSEIQAYVGRMANERPVILVADGKDTAKDMYLRQGYVYQGFKYHILKENI | not soluble
MGSDKIHHHHHHMSVTSTTSQNSLFDVIVIGSGIGGLVTATQLAAKGAKVLVLESYIIPGGSAGYFERQGYRFDVGASMIFGLGNRGTTNLLTRALQAVNSSVEAIADPVQIHYHLPSNLNLKVDRVYDKFLQNLAAYFPHETKGIRRFYDECWQVFKCLNRMDLLSLEEPRYLLRTFLQHPLACLGLLKYLPQNVGDIARRYIRDPELLKFIDIECYCWSVVPAAMTPMINAGMVFSDRHYGGVNYPKGGVGQIAQKLAEGLEKVGGEIRYQAKVAKIITEKYRAVGVQLTNGEIYRSKRIVSNATRWDTFEKLLPVDKMPSNEKDWQHSYKKSPSFLSLHMGVKESVLPQGTECHHIILEDWQNMTQAEGTLFVSIPTLLDPELAPEGCHIIHAFTPHWINDWQGFSVSDYEAKKEETAWRIIDRLEKIFPGLDAGLDYLEVGTPRTHRRFLGREDGTYGPIPRRKLRGLLSMPFNRTAIKGLYCVGDSTFPGQGLNAVAFSGFACAHRIAVDLGL | not soluble
IFIGNLDPEIDEKLLYDTFSAFGVILQTPKIMRDPDTGNSKGYAFINFASFDASDAAIEAMNGQYLCNRPITVSYAFKKDSKG | soluble
AFVKMVGHHVAFLEADVLQAERDHGAFPQALRRWLGSAGLPSFRNVSGVQWHNPSSLQPPPPGFK | not soluble
MSLKKINFGIVGLGRLGRAHAENLAFKIPNANLLAVCSIDKSQVDEVQKAWNIPYGYTDFDEMLKNKELDAIFIASPSGFHCEQIEKALDAGFHVFSEKPLGLYLDDAVRAMKAVNSHPNQIFMLGFMRRYDKSYAYAKKKIEEGAIGKPVLVRCYGLDPAKALPSFLKFAKDSYSGGLFLDMAIHDIDLARWYLDSEADELWAIGGAYGHKEFDEINDAETGAAMVKFKNGTMALLVAGRNCAHGYHIETEIIGTEGTLRIGTTPDKNLVTVFDSRGVNKECAGGFLERFEDAYLAEVKEFVDCVLENRKPAVTVEDGVLSTIVGYACKESFETGELVKVNYEGYDKLIKEGHHHHHH | soluble
MSEVKYKRVILKLSGEALAGEKGFGINPPVIKTVAEELKDVYDMGVQIAIVVGGGNMWRGEAGAQMGMERAQADYIGMLATIMNALALQDNLESIGVPTRVQTSIEMRQIAEPYIRRKAMRHLEKRRIVIFAGGTGSPYFSTDTTAALRAAEINADAILMAKNGVDGVYSADPNKDASAVKFDTLTHLDIINKGLQVMDTTASSLSMDNDIPVVVFNLNEPGNIRKVVAGEHIGTTVRGKLEHHHHHH | soluble
MPVFVKLTGGSIGLQAGVQSSDVVLVFRNDRNLDNIVNGKFTLGADASVAAGPVGRNALAATDSELKAEIYSWSTARGLFAGIALDGAALQIDDSANLDVYGKGTTPRMIFEGRTAEPPSSDVIAFRDRLEEVTYTARNNLEHHHHHH | soluble
MSLDPTRVDLLSICKEILTYPEYQERLPAGSAHPNIDSPAIKSLYAEIGRHSRQQTHVPSHYQLPPGDHLLIKQLAKITQDLGTPAKLDEIMVTHGAQQAISLALRATTQKGDIVAVESPCYFGNLLMLESLGLKVVEIPSCPRDGMCPEALAKTMATWDIKALIVTPNFTNPTGAMMPLEKRQQLLLASGNIPIIEDDVFGGLSYDKPLPSLSLLDDKQRVIYVNSLSKTLDSRLRIGWMLAGRYRDQIEQYLLCENMGSLNLMQSAVATFLTSGKYRTHTARMGRVYQNNMRRFIQMLHQYLDEYESLKNRYQINAVQGSFLLWLRLPEDTDSYALYQACNKHRISLLPGTVFGTQEQYRHCVRLSVANFGHETDWSHAMQTLAKLIAKRVCEGHHHHHH | soluble
MSGKRISREKLTIKKMIDLYQAKCPQASAEPEHYEALFVYAQKRLDKCVFGEEKPACKQCPVHCYQPAKREEMKQIMRWAGPRMLWRHPILTVRHLIDDKRPVPELPEKYRPKKPRE | not soluble

— the DeepSol protein solubility set
